The nanobody polyreactivity screen of Harvey et al. (2022)

Assay: yeast display, Sf9 membrane polyspecificity reagent, FACS + sequencing; frameworks hold sequencing errors
Method in brief: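 Polyreactivity labels are assigned by the sorting gate from which each nanobody was recovered. The gates were low and high (top ~1%), set on anti-HA fluorescence for expression and streptavidin fluorescence for reagent binding. Before sorting, galactose-induced (36–48 hours) yeast display cells were stained for 1 hour at 4 °C with 10% biotinylated, detergent-solubilized Sf9 membrane reagent.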

Sequence	polyreactivity (PSR sort gate)
QVQLVESGGGLVQAGGSLRLSCAASGRIFSRNAMGWYRQAPGKEREFVAAISRRGTSTYYADSVKGRFTISRDNAKNTVYLQMNSLIPEDTAVYYCNAGGSPWYKPVYYRALYDYWGQGTQVTVSS	high polyreactivity
QVQLVESGGGLVQAGGSLRLSSAASGIIFSTYAMGWYRQAPGKERELVAAITSTGSTNYADSVKGRFTISRDNAKNTVYFQMNSLKPEDTAVYYCNAALNVSGHYPNDYWGQGTQVTVSS	low polyreactivity
QGQLVESAGGLVQAGGSLRLSCAASGSILWHYAMGWYRQAHGKERELVAAISGSGSTIYADSVKGRFTISRDNAKNTVYLQLITLKPEDTADYYCARVHGTSESKYYYWGQGTQVTVSL	low polyreactivity
HVQLVESGGGLVQAGGSLRLSCADSGRILYYYAMRWYIQEPGKERELVAAINSSGGSPYYADSVKGRFTISRDIAKNTVYLQMNSLKPEDTAVYYGAAEYQVQGYDYWGQGSQVTVSS	high polyreactivity
QVQLVESGGGLVQAGGSLRLSCAASGITFSYNDMGWYRPAPGKEREFVATIRGSTARTYNADSVKGRFTISRDNAKNTVYLQMNSLKPEDTAVYYGAAGKYWYGYDYWGQGTQVTVSS	high polyreactivity
QVQLEDSGGGLVQAGGSLRLSCAASGFIFGSYTMGWYRQAPGKERELVAVITWSGSSTYYADSVKGRFTISRDNAKYPVYLQMNSLKPEDTAVYYCNAVKFGGYDYWGQGTQVTVSS	high polyreactivity
QVHLVESGGGLVQAGGSLRLSCAASGSTFSWYDMGWYRQAPGKERELVAAISTTGSTYYADSVKGRFTISRDNAKNTVYLQMNSLKPEDTAVYYCAADYISIAWYRLFYDYDYWGQGTQVTVSS	high polyreactivity
QVQLVESGGGLVQAGGSLRLSCAPSGSTFAYYAMGWYRQAPGKEREFVAAISTRGGSTYYADSVKGRFTISRDNAKNTVYFQMNSLKPEDTAVYYCAAGYFIYSWRIRFDYLGQGTQVTVSS	high polyreactivity
QVQLVESGGGIFQAGGSLRLSCDASGFTIGAYAMGWYRQAPGKERELVAAITLRTGGSTYYADSLKGRFTISRDNAKNTVYLQMNSLKPEDTAVYYCATYGSYWRKSRAPGYYYGGQGTQVTVSS	high polyreactivity
QVQLVESGGGLVQAGGSLRLSCAASGRTFWFNHMGSYRQAPGKERELVAAITWNGGSTYYADSVKGRFTISRDNAKNTVYLQMNSLKPEATAVYYCARTSYARYRNGWTYDHWGQGTQVTVSS	low polyreactivity
QVQLVESGGGLVQAGGSLRLSCAASGRIFRRYAMGWYRQAPGKERELVAAITSGGSTYADSVKGRFTISRDNAKNTVYLQMNSLKPEDTAVYYCAADDAQGFDYWGQGTQVTVSS	high polyreactivity
QVQLVESGGGLVQAGGSLRLSCAPSGRIIRKNAMGWSRQAPGKERELVAAITSVGSTYYADSVKGRFTISRDNAMNTVYLQMNSLKPEDTAVYYCNALQWSYNRGGYWGQGTQVTVSS	high polyreactivity
QDQLVESGGGLVQAGGSLRLSCAASGRIFPAYVMGWYRQAPGKERELVATIDNGGGTYYADSVKGRFTISRDNAKNTVYLQMNSLKPEDTAVYYCARDRHVRWGLKMDYWGQGTQVTVSS	low polyreactivity
QVQLVESGGGLVQAGGSLRLSCAASGRTFYYYTMGWYRQAPGKERELVAAITWNGGSTYYADSVKGRFTISRDNAKNTVYLQMNSLKPEDTGVYYCIARWTWRYDYWGQGTQVTLSS	high polyreactivity
QVQLVESGGGLVQAGGSLRLSCAASGRTFAYNAMGWYRQAAGKVRELVASITSGGSTNYADSVKGRFTISRDNAKNTVYLQMNSLKPEDTAVYYFIKDGKYHRVLYEYWGQGTQVTVSS	low polyreactivity
QVQLVESGGGLVQAGGSLRLSCAASGSTFYRYAMGWYRQAPGKERELVAAITRGGGRTYYADSVKGRFTISRDNAKNTVYLQMNSLKPEDTAVYYCNAASPYYDSWGQGTQVTVSS	high polyreactivity
QVQLVESGGGLVQAGGSLRLSCAASGYTFFYMGWYRQAPGKEREFVAVITYSGGSTYYADSVKGRFTISRDNAKNTVYLQMNSLKPEDTAVYYCAAAVWHYGRPGYLDSGYDYWGQGTQVTVSS	low polyreactivity
